Laboratory results published in paper PMC7391827 (Science (New York, N.Y.), 2020).

T1: S0_2.126 (synthetic construct (de novo design))
T1 chain: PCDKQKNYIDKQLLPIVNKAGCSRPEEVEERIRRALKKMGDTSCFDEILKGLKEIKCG


Assays:
[1] = molecular target: prefusion RSVF (preRSVF), prefusion-stabilized respiratory syncytial virus fusion protein (respiratory syncytial virus) (UniProt P03420)
[2] = molecular target: T1, S0_2.126; assay: SPR

Chain of prefusion RSVF (preRSVF), prefusion-stabilized respiratory syncytial virus fusion protein (respiratory syncytial virus) (P03420 135-513): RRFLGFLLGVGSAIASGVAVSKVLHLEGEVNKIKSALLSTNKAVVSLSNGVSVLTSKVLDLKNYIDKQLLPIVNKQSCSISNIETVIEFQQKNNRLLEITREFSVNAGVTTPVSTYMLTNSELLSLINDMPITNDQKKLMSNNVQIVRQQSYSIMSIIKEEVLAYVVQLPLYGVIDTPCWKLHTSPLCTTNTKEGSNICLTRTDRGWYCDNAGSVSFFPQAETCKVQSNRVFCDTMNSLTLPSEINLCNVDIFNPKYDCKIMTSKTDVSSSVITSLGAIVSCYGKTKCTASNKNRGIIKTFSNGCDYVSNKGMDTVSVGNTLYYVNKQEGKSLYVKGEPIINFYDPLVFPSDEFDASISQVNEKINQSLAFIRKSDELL

Row | Molecule | Kd [1] [nM] | Kd [2] [nM]
1 | D25 antibody | 0.15 | 
2 | D25 antibody (antibody, V domains shown) VH: QVQLVQSGAEVKKPGSSVMVSCQASGGPLRNYIINWLRQAPGQGPEWMGGIIPVLGTVHYAPKFQGRVTITADESTDTAYIHLISLRSEDTAMYYCATETALVVSTTYLPHYFDNWGQGTLVTVSS VL: DIQMTQSPSSLSAAVGDRVTITCQASQDIVNYLNWYQQKPGKAPKLLIYVASNLETGVPSRFSGSGSGTDFSLTISSLQPEDVATYYCQQYDNLPLTFGGGTKVEIK |  | ~0.05
